The results in this text go back to publication PMC11577422.

Like-named read-outs stand apart in the source and are kept apart here.

Substrate in the data set: Cc1ccco1
The data set is classed as in vitro ADME, human.

B1: CYP 2E1 (Homo sapiens) (protein)
chain: MSALGVTVALLVWAAFLLLVSMWRQVHSSWNLPPGPFPLPIIGNLFQLELKNIPKSFTRLAQRFGPVFTLYVGSQRMVVMHGYKAVKEALLDYKDEFSGRGDLPAFHAHRDRGIIFNNGPTWKDIRRFSLTTLRNYGMGKQGNESRIQREAHFLLEALRKTQGQPFDPTFLIGCAPCNVIADILFRKHFDYNDEKFLRLMYLFNENFHLLSTPWLQLYNNFPSFLHYLPGSHRKVIKNVAEVKEYVSERVKEHHQSLDPNCPRDLTDCLLVEMEKEKHSAERLYTMDGITVTVADLFFAGTETTSTTLRYGLLILMKYPEIEEKLHEEIDRVIGPSRIPAIKDRQEMPYMDAVVHEIQRFITLVPSNLPHEATRDTIFRGYLIPKGTVVVPTLDSVLYDNQEFPDPEKFKPEHFLNENGKFKYSDYFKPFSTGKRVCAGEGLARMELFLLLCAILQHFNLKPLVDPKDIDLSPIHIGFGCIPPRYKLCVIPRS
One may read the Km as the concentration of substrate that gives half-maximal velocity. On to B1, for which the Km result by setting is: (other: CYP 2E1; I) high substrate concentrations) “I) 1966.76; II) 23.29 μM”; (other: CYP 2E1; II) low substrate concentrations) 23.3 µM.
